Reference: the supplement of paper PMC9112550, “Optimization of the antimicrobial peptide Bac7 by deep mutational scanning” (BMC Biology, 2022)

These sequences were tested on Escherichia coli TOP10 (assay: shrunken log2 fold change of peptide-encoding DNA abundance (4.5 h post-induction vs induction); higher = less antimicrobial activity (less host growth inhibition)). Conditions: time post-induction: 4.5 h; library: site-saturation at positions 5, 18, 19, 20.
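Also: peptides expressed intracellularly from a pBAD plasmid library in pooled LB shake-flask culture, induced with 0.3% L-arabinose, DNA abundance read by NGS, three biological replicates, DESeq2 with apeglm shrinkage.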

RRIRRRPPRLPRPRPRPQVPPRP and RRIRGRPPRLPRPRPRPSQEPRP are within 0.2 log units of each other in “shrunken log2 fold change” value: 0.11 for the first, 0.172 for the second.

RRIRGRPPRLPRPRPRPVHYPRP and RRIRWRPPRLPRPRPRPTSWPRP are within 0.2 log units of each other in “shrunken log2 fold change” value: 0.109 for the first, 0.249 for the second.

RRIRMRPPRLPRPRPRPPENPRP and RRIRIRPPRLPRPRPRPMFGPRP are within 0.2 log units of each other in “shrunken log2 fold change” value: -0.0255 for the first, -0.0865 for the second.

Compared with RRIRSRPPRLPRPRPRPYQNPRP, RRIRERPPRLPRPRPRPEQLPRP is higher in “shrunken log2 fold change” value: -0.511 for the first, 0.00434 for the second.

Compared with RRIRARPPRLPRPRPRPMAKPRP, RRIRKRPPRLPRPRPRPVMWPRP is lower in “shrunken log2 fold change” value: 0.216 for the first, -0.221 for the second.

RRIRLRPPRLPRPRPRPSVKPRP and RRIRGRPPRLPRPRPRPLYLPRP are within 0.2 log units of each other in “shrunken log2 fold change” value: -0.0487 for the first, -0.221 for the second.

Going from RRIRVRPPRLPRPRPRPSYIPRP to RRIRQRPPRLPRPRPRPCYAPRP, the “shrunken log2 fold change” value rises from -0.74 to -0.251.

Compared with RRIRNRPPRLPRPRPRPRHKPRP, RRIRWRPPRLPRPRPRPGIQPRP is higher in “shrunken log2 fold change” value: -0.369 for the first, 0.468 for the second.

First: RRIRDRPPRLPRPRPRPRWKPRP
Second: RRIRHRPPRLPRPRPRPDTFPRP
The “shrunken log2 fold change” value of the first is higher: 0.0064 for the first, -1.19 for the second.

Compared with RRIRDRPPRLPRPRPRPSHWPRP, RRIRPRPPRLPRPRPRPPATPRP is higher in “shrunken log2 fold change” value: -0.178 for the first, 0.939 for the second.

RRIRTRPPRLPRPRPRPIMGPRP and RRIRLRPPRLPRPRPRPNPKPRP are within 0.2 log units of each other in “shrunken log2 fold change” value: -0.0135 for the first, -0.0548 for the second.

Compared with RRIRMRPPRLPRPRPRPKVWPRP, RRIRHRPPRLPRPRPRPVFHPRP is lower in “shrunken log2 fold change” value: 1.04 for the first, -0.345 for the second.

Going from RRIRRRPPRLPRPRPRPYFYPRP to RRIRDRPPRLPRPRPRPVYFPRP, the “shrunken log2 fold change” value rises from -0.683 to -0.447.

RRIRARPPRLPRPRPRPIVVPRP and RRIRQRPPRLPRPRPRPSRSPRP are within 0.2 log units of each other in “shrunken log2 fold change” value: -0.14 for the first, -0.117 for the second.

First: RRIRERPPRLPRPRPRPKPIPRP
Second: RRIRMRPPRLPRPRPRPLAPPRP
The “shrunken log2 fold change” value of the first is lower: -0.128 for the first, 0.735 for the second.

RRIRKRPPRLPRPRPRPWMIPRP and RRIRMRPPRLPRPRPRPMERPRP are within 0.2 log units of each other in “shrunken log2 fold change” value: 0.0508 for the first, -0.0334 for the second.

Going from RRIRGRPPRLPRPRPRPCLFPRP to RRIRDRPPRLPRPRPRPNWDPRP, the “shrunken log2 fold change” value falls from 0.346 to 0.0503.

Going from RRIRQRPPRLPRPRPRPGMDPRP to RRIRGRPPRLPRPRPRPSIVPRP, the “shrunken log2 fold change” value falls from 0.342 to 0.124.

Compared with RRIRARPPRLPRPRPRPPGPPRP, RRIRERPPRLPRPRPRPLHRPRP is lower in “shrunken log2 fold change” value: 0.703 for the first, -0.0862 for the second.

Compared with RRIRARPPRLPRPRPRPEAEPRP, RRIRNRPPRLPRPRPRPTGRPRP is lower in “shrunken log2 fold change” value: 1.61 for the first, 0.0525 for the second.

RRIRPRPPRLPRPRPRPQVDPRP and RRIRQRPPRLPRPRPRPQNQPRP are within 0.2 log units of each other in “shrunken log2 fold change” value: -0.0328 for the first, -0.17 for the second.

First: RRIRARPPRLPRPRPRPPYSPRP
Second: RRIRTRPPRLPRPRPRPAVCPRP
The “shrunken log2 fold change” value of the first is lower: -0.0108 for the first, 0.712 for the second.

RRIRWRPPRLPRPRPRPVQMPRP and RRIRPRPPRLPRPRPRPTQTPRP are within 0.2 log units of each other in “shrunken log2 fold change” value: 0.159 for the first, 0.147 for the second.

Compared with RRIRVRPPRLPRPRPRPHHEPRP, RRIRYRPPRLPRPRPRPNIMPRP is lower in “shrunken log2 fold change” value: -0.582 for the first, -1.42 for the second.

First: RRIRKRPPRLPRPRPRPYEPPRP
Second: RRIRWRPPRLPRPRPRPNYYPRP
The “shrunken log2 fold change” value of the first is higher: -0.243 for the first, -0.705 for the second.

Compared with RRIRSRPPRLPRPRPRPFTGPRP, RRIRYRPPRLPRPRPRPPATPRP is higher in “shrunken log2 fold change” value: -0.261 for the first, 0.407 for the second.

RRIRPRPPRLPRPRPRPDSGPRP and RRIRHRPPRLPRPRPRPPEFPRP are within 0.2 log units of each other in “shrunken log2 fold change” value: 0.0463 for the first, -0.0433 for the second.

Going from RRIRDRPPRLPRPRPRPKNGPRP to RRIRYRPPRLPRPRPRPKVGPRP, the “shrunken log2 fold change” value falls from 0.74 to 0.0316.

Going from RRIRIRPPRLPRPRPRPWWHPRP to RRIRKRPPRLPRPRPRPRFCPRP, the “shrunken log2 fold change” value rises from -0.218 to 0.554.

Going from RRIRIRPPRLPRPRPRPLHLPRP to RRIRERPPRLPRPRPRPRACPRP, the “shrunken log2 fold change” value rises from -1.08 to 0.177.

RRIRWRPPRLPRPRPRPCITPRP and RRIRLRPPRLPRPRPRPGYAPRP are within 0.2 log units of each other in “shrunken log2 fold change” value: -0.0175 for the first, 0.119 for the second.

Compared with RRIRNRPPRLPRPRPRPRPAPRP, RRIRNRPPRLPRPRPRPDMTPRP is lower in “shrunken log2 fold change” value: 0.313 for the first, -0.287 for the second.

First: RRIRGRPPRLPRPRPRPFWKPRP
Second: RRIRFRPPRLPRPRPRPRGWPRP
The “shrunken log2 fold change” value of the first is lower: 0.0889 for the first, 0.9 for the second.

First: RRIRGRPPRLPRPRPRPRNMPRP
Second: RRIRFRPPRLPRPRPRPAMIPRP
The “shrunken log2 fold change” value of the first is higher: 0.0712 for the first, -0.397 for the second.

RRIRQRPPRLPRPRPRPDFTPRP and RRIRCRPPRLPRPRPRPQEDPRP are within 0.2 log units of each other in “shrunken log2 fold change” value: -0.134 for the first, -0.0835 for the second.

RRIRERPPRLPRPRPRPDGAPRP and RRIRHRPPRLPRPRPRPCYWPRP are within 0.2 log units of each other in “shrunken log2 fold change” value: 0.129 for the first, -0.026 for the second.

RRIRCRPPRLPRPRPRPDWFPRP and RRIRCRPPRLPRPRPRPGNKPRP are within 0.2 log units of each other in “shrunken log2 fold change” value: -0.141 for the first, -0.223 for the second.

Compared with RRIRIRPPRLPRPRPRPANAPRP, RRIRSRPPRLPRPRPRPYCHPRP is lower in “shrunken log2 fold change” value: -0.319 for the first, -0.532 for the second.

Compared with RRIRARPPRLPRPRPRPTFDPRP, RRIRARPPRLPRPRPRPIEFPRP is lower in “shrunken log2 fold change” value: 0.399 for the first, -0.0488 for the second.

RRIRNRPPRLPRPRPRPRFPPRP and RRIRERPPRLPRPRPRPCPYPRP are within 0.2 log units of each other in “shrunken log2 fold change” value: -0.365 for the first, -0.367 for the second.

Going from RRIRRRPPRLPRPRPRPDDVPRP to RRIRDRPPRLPRPRPRPQIWPRP, the “shrunken log2 fold change” value rises from 0.0443 to 0.352.

Compared with RRIRHRPPRLPRPRPRPHRDPRP, RRIRDRPPRLPRPRPRPCGGPRP is higher in “shrunken log2 fold change” value: -0.263 for the first, 0.132 for the second.

Compared with RRIRTRPPRLPRPRPRPTMIPRP, RRIRGRPPRLPRPRPRPPVFPRP is higher in “shrunken log2 fold change” value: -0.413 for the first, 0.647 for the second.

First: RRIRVRPPRLPRPRPRPLNWPRP
Second: RRIRNRPPRLPRPRPRPVPGPRP
The “shrunken log2 fold change” value of the first is higher: 1.03 for the first, 0.176 for the second.

Compared with RRIRRRPPRLPRPRPRPCSAPRP, RRIRVRPPRLPRPRPRPYKGPRP is lower in “shrunken log2 fold change” value: 0.34 for the first, -0.294 for the second.

With RRIRYRPPRLPRPRPRPDFNPRP the “shrunken log2 fold change” value was -1.62.
